This is an account of results in US8551742B2 (priority 2007, dated 2013).

The data set relates to MetA. Description: In-vitro characterization of purified mutant and wild type MetA enzymes (assay of Lawrence, modified). It counts as biochemical, E. coli. Here is the method: PCR was used to amplify and then clone the five metA mutant genes identified as pCL-A#10, pCL-A#11, pCL-A#32, pCL-A#37, and pCL-A#41, into the pET30a vector. All constructs were subjected to DNA sequence analysis to confirm the presence of mutations. The genes were cloned with a C-terminus His tag for enzyme purification. The enzymes were overexpressed, purified and the activity was measured in the presence of different levels of methionine and SAMe, as described by Lawrence, J. Bacteriol., 109:8-11, 1972. The only modifications to the assay were that multiple points were taken and that the reaction was quenched with guanidine.

The mark [1] stands for this setting: control (no Met or SAM), U = formation of 1 μmole of CoA per minute at room temperature.

B1: w.t.: wild type E. coli MetA enzyme (homoserine succinyltransferase), C-terminus His tag, purified (protein, UniProt P07623 2-309, looked up)
Homoserine …: PIRVPDELPAVNFLREENVFVMTTSRASGQEIRPLKVLILNLMPKKIETENQFLRLLSNSPLQVDIQLLRIDSRESRNTPAEHLNNFYCNFEDIQDQNFDGLIVTGAPLGLVEFNDVAYWPQIKQVLEWSKDHVTSTLFVCWAVQAALNILYGIPKQTRTEKLSGVYEHHILHPHALLTRGFDDSFLAPHSRYADFPAALIRDYTDLEILAETEEGDAYLFASKDKRIAFVTGHPEYDAQTLAQEFFRDVEAGLDPDVPYNYFPHNDPQNTPRASWRSHGNLLFTNWLNYYVYQITPYDLRHMNPTLD
modifications: C-terminal His tag
notes: wild type E. coli MetA enzyme (homoserine succinyltransferase), C-terminus His tag, purified
With B1, the “% of specific activity retention” value by setting is: (control) 100%; (w/10 mM SAM) 2.9%; (w/ 100 mM Met) 7.6%. Moreover, the “Specific activity (U/mg)” value by setting is: under setting [1], 386 U/mg; (w/10 mM SAM) 11 U/mg; (w/ 100 mM Met) 29 U/mg.

B2: #11 (protein, listed as Escherichia coli)
chain: MPIRVPDELPAVNFLREENVFVMTTSRAPGQEIRPLKVLILNLMPKKIETENQFLRLLSNSPLQVDIQLLRIDSRESRNTPAEHLNNFYCNFEDIQDQNFDGLIVTGAPLGLVGFNDVAYWPQIKQVLEWSKDHVTSTLSVCWAVQAALNILYGIPKQTRTEKLSGVYEHHILHPHALLTRGFDDSFLAPHSRYADFPAALIRDYTDLEILAETEEGDAYLFASKDKRIAFVTGHPEYDAQTLAQEFFRDVEAGLDPDVPYNYFPHNDPQNTPRASWRSHGNLLFTNWLNYYVYQITPYDLRHMNPTLD
As to B2, the “% of specific activity retention” value (control) is 100%; the “% of specific activity retention” value (w/10 mM SAM) turned out to be 82%; the “% of specific activity retention” value (w/ 100 mM Met) was 94%; the “% of specific activity retention” value (w/ 300 mM Met) amounted to 56%; the “% of specific activity retention” value (w/ 300 mM Met, listed as metA #11) worked out at 55%. In addition, the “Specific activity (U/mg)” value under setting [1] turned out to be 479 U/mg, the “Specific activity (U/mg)” value (w/10 mM SAM) worked out at 395 U/mg, the “Specific activity (U/mg)” value (w/ 100 mM Met) was 451 U/mg and the “Specific activity (U/mg)” value (w/ 300 mM Met) is on record as 282 U/mg. Also, the “feed-back inhibition resistance compared to the wild type enzyme” value (methionine and SAM inhibition) was “most resistant”.
